Assay results from patent US20210147877A1.

Key:
Experiment in all cases: cell-based or functional assay
[1] = target: AAV8 vector (parental AAV8 capsid) (AAV serotype 8)
[2] = target: haploid virus AAV2/8 1:3 (AAV serotype 2; AAV serotype 8) (UniProt P03135)
[3] = target: haploid virus AAV2/8 1:1 (AAV serotype 2; AAV serotype 8) (UniProt P03135)
[4] = target: haploid virus AAV2/8 3:1 (AAV serotype 2; AAV serotype 8) (UniProt P03135)
[5] = target: AAV2 vector (parental AAV2 capsid) (AAV serotype 2) (UniProt P03135)

Substance | Neutralization antibody titer [1] [titer] | Neutralization antibody titer [2] [titer] | Neutralization antibody titer [3] [titer] | Neutralization antibody titer [4] [titer] | Neutralization antibody titer [5] [titer]
monoclonal antibody A20 | < 2 | < 2 | 32 | 2048 | 512
monoclonal antibody ADK8 | 1024 | 1024 | 512 | 512 | < 2
